Data on two molecules can be found in patent US20240174765A1 (ACADEMIA SINICA, published 2024).

The target of experiment [1] is T1, enolase 1 (ENO1), endogenous in CL1-5 human lung cancer cells (human, UniProt P06733 2-434).
T1 construct: whole, on cells; Used for ENO1 on the surface of live or fixed CL1-5 cells, and for endogenous ENO1 in CL1-5 membrane extracts and lysates (cross-link IP, co-IP); also called alpha-enolase; surface form ENO1
Put plainly: flow cytometry on live cells. (In general: In flow cytometry, cells or beads pass a laser one at a time.)

Experiment [2] has as its target T1, enolase 1 (ENO1), endogenous in CL1-5 …. Put plainly: flow cytometry on live CL1-5 cells.

T1 sequence (P06733 2-434): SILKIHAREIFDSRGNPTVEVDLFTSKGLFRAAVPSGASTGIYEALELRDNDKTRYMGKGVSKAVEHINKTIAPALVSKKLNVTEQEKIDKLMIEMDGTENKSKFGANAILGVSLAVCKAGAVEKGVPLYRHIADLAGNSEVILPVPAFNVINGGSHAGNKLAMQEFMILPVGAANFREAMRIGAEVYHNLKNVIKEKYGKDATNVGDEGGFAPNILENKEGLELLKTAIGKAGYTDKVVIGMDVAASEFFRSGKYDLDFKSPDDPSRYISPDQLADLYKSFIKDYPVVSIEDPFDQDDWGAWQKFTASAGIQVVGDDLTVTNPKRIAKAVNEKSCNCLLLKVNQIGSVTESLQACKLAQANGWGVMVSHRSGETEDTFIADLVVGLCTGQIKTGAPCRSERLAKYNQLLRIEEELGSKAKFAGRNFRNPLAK

B1: chimeric ENO1-22 (chENO1-22) (antibody, V domains shown)
VH: QVQLQQSGPEVVRPGVSVKISCKGSGYTFTDYAMHWVKQSHAKSLEWIGVISTYNGNTNYNQKFKGKATMTVDKSSSTAYMELARLTSEDSAIYYCARSPLRYWGQGTTLTVSS
VL: QIVLSQSPAILSASPGEKVTMTCRASSSVSYMHWYQQKPGSSPKPWIYATSNLASGVPARFSGSGSGTSYSLTISRVEAEDAATYYCQQWSSNPLTFGAGTKLELK
notes: Variable domain of anti-ENO1 mAb-22 cloned into a human IgG Fc vector; also called chimeric ENO1 mAb; chimeric ENO1 antibody
For B1, the binding result in experiment [1] was “binds”.

B2: anti-ENO1 mAb-22 (antibody, V domains shown)
VH: B1 VH
VL: B1 VL
notes: Mouse hybridoma monoclonal antibody; also called ENO1-22; anti-ENO1 mAb-22 antibody
As for B2, the binding result in experiment [2] is “binds”.
